Assay: soluble on expression in E. coli; label from the status in PepcDB or PDB records

| Sequence | soluble on expression in E. coli |
| --- | --- |
| FHMNRVTGELGNRPLFSIADFTFYQGISCILGDNGVGKSTLFRSILQFQKYKGSITWKGSVLKKKKSLYRDLTGVVQEAEKQFIRVSLREELQLDGPDSERNQRIFQALRYFDLEQAVDKSPYQLSGGQQKILQLLTILTSKASVILLDEPFAGLDDRACHYFCKWIVEERNQGRSFLLISHRLDPLISVVDYWIEMTSQGLRHVKEVTITKPLTSQSSNTQGEVR | soluble |
| FLETLAKVKKIFIDKTGTLTQKEVLLKEKIIYEEFDGRLLKSLLKVREHLAHSAILKSLDGDEVSLEKIEFFAHGLKASYQNETLLVGSLKFLGSMGVDIPMKESANIMVGFAKNETLCALFILEERLKANAKEVVQALQNKGLELEILSGDNESSVKECAKKLGISNYHAHLTPEDKAQTISSYKGVCAMVGDGNNDALALKQASVSLGFEKSALSKSACDILLLEEDLSLLKKAFDNAQKVYQVVLQ | not soluble |
| FLPMSREEMDQLGWDACDFILVCGDAYIDHPSFVSGIIGRVLEAQGFRVGIIAQPDWTNVESFRVLGKPTIAWGVTAGNMDSMINRYTADRKIRSDDAYSPNNEPNKRPDRAATVYCQRCREAFPDVPVLLGGIEGSLRRIAHYDYWSDKVRRSILMDSKADLLMYGNGERAIIDVMHRLAKGEKIHEITDVRGTAFIINKHNKASKAQFIEIASNDVDTVGRVDPIINPYVMTEDIDGCEVEKEKGNSLAQYQNFQKEIVSKPVVREGDQLDKDTQIIQLKPVPSKAIKHKLPPRELAVIRLPSFEEVADDHVLYAHANRILHLETNPGNARALVQRHGERDVWINPPPIPLTTEEMDYVFDLPYARLPHSAYGDARFPAFDMIKFS | not soluble |
| FPSGSAQLSARLYLPAGTPQVAVVINGATGVPREYYQHFATWLAAERGIACLTYDYRDFGHSLRGPLAASTATMSDWALIDMPAAYAEMQRRYPDLPLWVIGHSVGGMLGPLQPGIEPIARMICVCSGLVHHSDHPWPYQALARLFWFGHAPLLVKTLGYLPGRRIGFGSDLPPGVYWEWRRWCTTPGAYLPEMGDRLPQADWSRSGAPVDMFAFEDDTTIPPNCVWRLADVYGETVRRHLLHPRAFGLREIGHLGAFARRNAALWPRLIA | not soluble |
| GAMAMPMIEYLERFSLKAKINNTTNLDYSRRFLEPFLRGINVVYTPPQSFQSAPRVYRVNGLSRAPASSETFEHDGKKVTIASYFHSRNYPLKFPQLHCLNVGSSIKSILLPIELCSIEEGQALNRKDGATQVANMIKYAATS | soluble |
| GAMGMTTYLEFIQQNEERDGVRFSWNVWPSSRLEATRMVVPVAALFTPLKERPDLPPIQYEPVLCSRTTCRAVLNPLCQVDYRAKLWACNFCYQRNQFPPSYAGISELNQPAELLPQFSSIEYVVLRGPQMPLIFLYVVDTCMEDEDLQALKESMQMSLSLLPPTALVGLITFGRMVQVHELGCEGISKSYVFRGTKDLSAKQLQEMLGLSKVPVTQATRGPQVQQPPPSNRFLQPVQKIDMNLTDLLGELQRDPWPVPQGKRPLRSSGVALSIAVGLLECTFPNTGARIMMFIGGPATQGPGMVVGDELKTPIRSWHDIDKDNAKYVKKGTKHFEALANRAATTGHVIDIYACALDQTGLLEMKCCPNLTGGYMVMGDSFNTSLFKQTFQRVFTKDMHGQFKMGFGGTLEIKTSREIKISGAIGPCVSLNSKGPCVSENEIGTGGTCQWKICGLSPTTTLAIYFEVVNQHNAPIPQGGRGAIQFVTQYQHSSGQRRIRVTTIARNWADAQTQIQNIAASFDQEAAAILMARLAIYRAETEEGPDVLRWLDRQLIRLCQKFGEYHKDDPSSFRFSETFSLYPQFMFHLRRSSFLQVFNNSPDESSYYRHHFMRQDLTQSLIMIQPILYAYSFSGPPEPVLLDSSSILADRILLMDTFFQILIYHGETIAQWRKSGYQDMPEYENFRHLLQAPVDDAQEILHSRFPMPRYIDTEHGGSQARFLLSKVNPSQTHNNMYAWGQESGAPILTDDVSLQVFMDHLKKLAVSSAA | soluble |
| GAMGNERRILEQKKHYFWLLLQRTYTKTGKPKPSTWDLASKELGESLEYKALGDEDNIRRQIFEDFKPE | soluble |
| GAMVMRLGDAAELCYNLTSSYLQIAAESDSIIAQTQRAINTTKSILINETFPKWSPLNGEISFSYNGGKDCQVLLLLYLSCLWEYYIVKLSQSQFDGKFHRFPLTKLPTVFIDHDDTFKTLENFIEETSLRYSLSLYESDRDKCETMAEAFETFLQVFPETKAIVIGIRHTDPFGEHLKPIQKTDANWPDFYRLQPLLHWNLANIWSFLLYSNEPICELYRYGFTSLGNVEETLPNPHLRKDKNSTPLKLNFEWEIENRYKHNEVTKAEPIPIADEDLVKIENLHEDYYPGWYLVDDKLERAGRIKKK | soluble |
| GASIRWEWRAARFADYLLQTRLKSRNNGLRVVYSITINLVPNHLDKRAHKYLGMVRQASRKYGVDESLILAIMQTESSFNPYAVSHADAMGLMQVVQHSAGRDVFRSQGKSGLPSRSYLFDPANNIDTGTAYLAMLNNVYLAGIDNPTSRRYAVITAYNGGAGSVLRVFSSDKVQAANIINSMAPGDVYQTLTTRHPSAESRRYLYKVNTAQKSYRRK | not soluble |
| GASIVGSWVEPVPGLEGQVQGIKMEEGGVASSVNMATLVYESWKQEGTKLILTGKSIGNGQTIEFVDTMDIKRLTADSLVLDNQGMEIRYAKQK | soluble |
| GDAAKGEKEFNKCKTCHSIIAPDGTEIVKGAKTGPNLYGVVGRTAGTYPEFKYKDSIVALGASGFAWTEEDIATYVKDPGAFLKEKLDDKKAKTEMAFKLAKGGEDVAAYLASVVK | soluble |
| GDDYTQQQGEVEKQPNIDELKKRMEQSRLNKLRGDLDQLIESDPKLRALRPHLKIDLVQEGLRIQIIDSQNRPMFKTGSAEVEPYMRDILRAIAPVLNGIPNRISLAGHTDDFPYANGEKGYSNWELSADRANASRRELVAGGLDNGKVLRVVGMAATMRLSDRGPDDAINRRISLLVLNKQAEQAILHENAESQNEPVSVLQQHHHHHH | soluble |
| GDLSNYFSNLSRLNCPQTIMTFRLFDPGFPFTDIEVNADIVLDRDAEKLPENWLQQLTGLSDTDVSMTAKGNVLSGQFLLPDFNLKLQDKSHAYLLLQGMDLEEVLRIQPQIGIYANGLFDGVLPVDLVDGKVSISGGQLAARAPGGLIAISGNPAVDQMRQSQPYLDFVFSALEHLAYSQLSSSFDMDNTGDATLLVEVKGRSQGIERPIHLNYSHEENMLQLFRSLQIGNDLQNRIEK | not soluble |
| GFIDSHVHLFGGSVELDCLSLYGVKGLDAMRAAIQPYAQANPDDALVFCVMADYDILGTGHTLTRHDLDSILADRPLAMFAPDHHTVWANTAALEATGLLQGGEVDAGSLIVLGEDGLANGELLEPGAYGPILGLTRHGGREMLGLTTGKDPEPPATPDQRARDKDVIARGLAHCAAQGITGLHLMDGNRYQLELLTELEAEGRLLCRCEVPFHMKGTDPVERMTAEAPAMRAAYRGDKVRCNHLKMFIDGVIESGTALMLRPYPGELGANDNTGDEVFTQEHFTACCVEADRLGFQIAVHAIGDAGVRRTIDAFEAARRANGTRDSRHRIEHIEVIHPDDIPRLAELDIVASLQPGHAPRGHVFPPGAVGQYLHPDQIVGAYAWQTIRETGARVVFSTDWPVIPVDVMPSLRAAIAPLDLGPDWPDQSQSLMDTLASYTRDNAWVEFNEDSKGRLKVGMAADIAVLSHDLTALAPDDITQAAAMVTIMDGAVTY | not soluble |
| GGQFIAFLRNITERKRAEALHRMGQDILLALNENEDMKEAIQRVLGLLRSATGVDAVGIRLQDGDDFPYFYQEGFPPDFLQKEDSIVARNKDGGVCRDSCGNVCLECTCGMVISGSTDHANPLFTPGGSAWTNDSFPYLEVPADQDPRTTPRDECIHQGYASIALIPIRAKGRIVGLLQLNDRRKGRFTREGIEALEDIAKNIGEAMLRKQAEEKLVASERFLRMLTNQLPGMVGYWDRD | not soluble |
| GGSGERKISRIHLVSEPSITHFLQVSWEKTLESGFVITLTDGHSAWTGTVSESEISQEADDMAMEKGKYVGELRKALLSGAGPADVYTFNFSKESCYFFFEKNLKDVSFRLGSFNLEKVENPAEVIRELICYCLDTTAKNEKSIDDLEEKVAHAKEENLNMHQMLDQTLLELNNM | soluble |
| GGSVLAERAGIDPTAILRDFDRGRTSTLPDGRTLREWDIVAVDKDFEIAPGIIFKGWSYNGRIPGPTLWAREGDALRIHFTNAGAHPHTIHFHGVHRATMDGTPGIGAGSIAPGQSFTYEFDATPFGTHLYHCHQSPLAPHIAKGLYGGFIVEPKEGRPPADDEMVMVMNGYNTDGGDDNEFYSVNGLPFHFMDFPVKVKQHELVRIHLINVLEYDPINSFHIHGNFFHYYPTGTMLTPSEYTDTISQVQGQRGILELRFPYPGKFMFHAHKTEFAELGWMGFFEVSA | soluble |
| GGVVLRVVTVLEEPFVMVSENVLGKPKKYQGFSIDVLDALSNYLGFNYEIYVAPDHKYGSPQEDGTWNGLVGELVFKRADIGISALTITPDRENVVDFTTRYMDYSVGVLLRRGTSIQSLQDLSKQTDIPYGTVLDSAVYQHVRMKGLNPFERDSMYSQMWRMINRSNGSENNVLESQAGIQKVKYGNYAFVWDAAVLEYVAINDPDCSFYTVGNTVADRGYGIALQHGSPYRDVFSQRILELQQSGDMDILKHKWWPKNGQCDL | soluble |
| GHHHHHHAIAENLYFQSDLFETSQIEKLLESLENYQPAFPDALVRYYLAKSGFQTDDIRAERLVALAAQKFVADVANDALNHVKLRQQSQATSKKSKENEVILTVEDLSKALEEYGVHLKKPPYYVDSPVVGVGSANLKKRKTEQVTSVKPEEKSLEGKEVFKEEPKEEDKELTQEPENV | soluble |
| GHHHHHHAIAENLYFQSKFLDVECLSELQRKLNDLELTDYRVRCQLEAYSCKPAGFDKKLSKSLEQKLVEQLEASPRVLEGSPVGSLEDQSARKTLINLICTLNAAHQDYDFSSLQLSRLKRVQDVRSLQQHVDSLFELFYRQLGLEFRQFLWENIGQIIRPEECEVYSYLPDYESDPYSASGALWSFCYFFYHKNMKKILFFSCTLSTRLAEDSESTESVDEEDFGKESSGLETPFAMFETVI | not soluble |
| GHHHHHHAIAENLYFQSNSHDGSNFSNKFSAHKDVVEDLLRKDTVGLVTFQDFRARREYLERCAVAEAACQNASRRAEELETKKKRVKRANLSRLSFGDSLEDQEENSVEFAKITRFASSKKANGVGFNTSGQDIVKEPDVFSPKEEGFFGKQNRKIGMDPGVDTSFLPDRDREQEERLERERLKQQWLSEQERVKNEEIDIIYSIWDGRGQRKLLSCKKGTTIAKFLSIVQQKVSTLKHCKVEDLMFIKEDMIIPHHLSFYDLISMKARGKNGSLFCFDVHEDIRIRNDASVEKDDSHAAKVVERRWYERNKHIYPASMWEVFDVSKNYGRVQKDFFGN | not soluble |
| GHMDVGERSSDQGTTVLTEAQRIDWMRLIRAENVGPRTFRSLINHFGSARAALERLPELARRGGAARAGRIPSEDEARREIEAGRRIGVELVAPGETGYPTRLATIDDAPPLLGVHALPEALAVMARPMIAIVGSRNASGAGLKFAGQLAADLGAAGFVVISGLARGIDQAAHRASLSSGTVAVLAGGHDKIYPAEHEDLLLDIIQTRGAAISEMPLGHVPRGKDFPRRNRLISGASVGVAVIEAAYRSGSLITARRAADQGREVFAVPGSPLDPRAAGTNDLIKQGATLITSASDIVEAVASILERPIELPGREPEHAPPEGEPDTGDRTRILALLGPSPVGIDDLIRLSGISPAVVRTILLELELAGRLERHGGSLVSLS | soluble |
| GHMIQESTMEMTNAQRLILSNQYKMMTMLDPANAERYRRLQTIIERGYGLQMRELDREFGELKEETCRTIIDIMEMYHALHVSWSNLQDQQSIDERRVTFLGFDAATEARYLGYVRFMVNVEGRYTHFDAGTHGFNAQTPMWEKYQRMLNVWHACPRQYHLSANEINQIINA | soluble |

— the DeepSol protein solubility set
